Biological target: APOBEC3A wild-type (Homo sapiens) (UniProt P31941)
Settings: 5-nitroindole at positions 12-14; deamination activity

Chain of APOBEC3A wild-type (Homo sapiens) (P31941 whole entry): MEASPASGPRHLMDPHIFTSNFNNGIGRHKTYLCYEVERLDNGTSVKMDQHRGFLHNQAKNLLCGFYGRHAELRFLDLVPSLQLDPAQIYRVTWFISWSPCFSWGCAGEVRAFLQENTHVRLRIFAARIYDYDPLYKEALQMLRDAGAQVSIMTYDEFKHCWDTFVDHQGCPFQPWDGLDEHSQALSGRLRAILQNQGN

Question: With “AAAAAAAAATCNNNAAAAAAA [+1 to +3 5-nitroindole substrate]” as the sequence, how does the binding signal (fold lower than n3) read?
Answer: 2

Source: patent US20180170984
